In the Immune Epitope Database (IEDB) one finds Kd data, which are given here for 13 sequences.

A value given as a limit tells only on which side of the number the result lay.

Holding throughout (test): IEDB peptide-MHC binding, purified MHC/competitive/radioactivity; filed as Kd, often an IC50 or EC50 that approximates it; ≥ and ≤ were set here for values at or beyond the usual limits of such assays
Common to all, as to conditions: source organism: Homo sapiens

For experiment [1], the target named is HLA-B*38:01.
The target of experiment [2] is HLA-B*39:06.
For experiment [3], the target named is HLA-B*39:01.

Consider THFPHQVIL, for which the results for the Kd in experiment [1], in experiment [2] and in experiment [3] were 142 nM, 2600 nM and 73 nM, respectively.
The matching figures for SHVAVENAL: 321 nM, 696 nM and 11 nM.
For the sequence NRVMLPKAA, the Kd in experiment [1] was ≥ 50000 nM; in experiment [2], 14 nM; in experiment [3], 35 nM.
For WMRLLPLLA, in that order: ≥ 50000 nM, 155 nM and 865 nM.
The matching figures for SASIPLTVVA: ≥ 50000 nM, 310 nM and ≥ 30900 nM.
Regarding NRVMLPKA, the Kd in experiment [2] amounted to 41 nM; in experiment [3], 85 nM.
For TNLFLFLFAV, the Kd in experiment [1] is 6690 nM; in experiment [2], 354 nM; in experiment [3] it was 3950 nM.
For MRLLPLLA, in that order: ≥ 44500 nM, 41 nM and 62 nM.
For the sequence NHSSPCLEQF, the figures for the Kd in experiment [2] and in experiment [3] were ≥ 50000 nM and ≥ 25700 nM, respectively.
FLFLFAVG: the results for the Kd in experiment [1], in experiment [2] and in experiment [3] were ≥ 50000 nM, 405 nM and 17900 nM, respectively.
Regarding FRLLCALTSL, the figures for the Kd in experiment [1], in experiment [2] and in experiment [3] were 2760 nM, 7.4 nM and 290 nM, respectively.
Turning to SHLVEALYL, the Kd in experiment [1] is 10 nM; in experiment [2], ≥ 35600 nM; in experiment [3], 5250 nM.
With YHFLQIPT, the Kd was 9750 nM in experiment [1], 151 nM in experiment [2] and 660 nM in experiment [3].

Broadly, the Kd is the equilibrium constant for the complex coming apart.
